Data taken from article PMC10035430.

What was measured:
[1] = molecular target: GWS1B form II RubisCO (CbbM) from an uncultivated Gallionellaceae species (uncultivated Gallionellaceae sp. (groundwater aquifer metagenome)); test: SEC
[2] = molecular target: GWS1B form II RubisCO (CbbM) from an uncultivated Gallionellaceae species (uncultivated Gallionellaceae sp. (groundwater aquifer metagenome)); test: crystal structure
[3] = molecular target: GWS1B form II RubisCO (CbbM) from an uncultivated Gallionellaceae species (uncultivated Gallionellaceae sp. (groundwater aquifer metagenome)); test: SEC-MALS

Measured: stoichiometry N

GWS1B form II RubisCO (CbbM) from an uncultivated Gallionellaceae species (enzyme)
6: [1] | [2] | [3]
